Results as given in PMC9585388 (Research and Practice in Thrombosis and Haemostasis, 2022).

Biological target: T1, fibrinogen (UniProt P02671-2;P02675;P02679-2)
T1 sequence 1: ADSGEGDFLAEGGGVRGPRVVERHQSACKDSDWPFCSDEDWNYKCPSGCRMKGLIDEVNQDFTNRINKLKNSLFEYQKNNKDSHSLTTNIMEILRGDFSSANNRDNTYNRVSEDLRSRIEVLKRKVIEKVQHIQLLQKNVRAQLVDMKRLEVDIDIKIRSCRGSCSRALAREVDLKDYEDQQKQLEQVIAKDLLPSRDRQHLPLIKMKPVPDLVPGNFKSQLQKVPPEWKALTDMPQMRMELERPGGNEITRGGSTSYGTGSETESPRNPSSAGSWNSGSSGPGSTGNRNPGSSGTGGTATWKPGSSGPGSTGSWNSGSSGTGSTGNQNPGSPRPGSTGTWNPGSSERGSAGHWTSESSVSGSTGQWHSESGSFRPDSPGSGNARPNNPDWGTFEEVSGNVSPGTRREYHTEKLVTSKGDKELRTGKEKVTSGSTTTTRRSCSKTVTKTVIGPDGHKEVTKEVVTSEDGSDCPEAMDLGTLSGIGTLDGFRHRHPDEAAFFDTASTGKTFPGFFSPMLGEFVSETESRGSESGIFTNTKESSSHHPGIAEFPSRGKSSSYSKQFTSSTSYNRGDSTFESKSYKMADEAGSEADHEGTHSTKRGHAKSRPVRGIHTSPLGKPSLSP
T1 sequence 2: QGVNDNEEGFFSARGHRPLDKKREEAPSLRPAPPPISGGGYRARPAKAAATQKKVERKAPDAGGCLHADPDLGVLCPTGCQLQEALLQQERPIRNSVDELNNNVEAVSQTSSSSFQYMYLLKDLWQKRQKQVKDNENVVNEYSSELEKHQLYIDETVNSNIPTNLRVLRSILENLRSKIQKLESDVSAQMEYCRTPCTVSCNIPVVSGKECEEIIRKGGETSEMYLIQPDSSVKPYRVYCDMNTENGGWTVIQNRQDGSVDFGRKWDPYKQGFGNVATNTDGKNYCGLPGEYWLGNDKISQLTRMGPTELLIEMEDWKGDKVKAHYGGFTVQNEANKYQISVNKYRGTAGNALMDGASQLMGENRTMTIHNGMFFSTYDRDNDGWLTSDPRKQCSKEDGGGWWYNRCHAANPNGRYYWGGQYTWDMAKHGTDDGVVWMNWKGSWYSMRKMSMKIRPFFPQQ
T1 sequence 3: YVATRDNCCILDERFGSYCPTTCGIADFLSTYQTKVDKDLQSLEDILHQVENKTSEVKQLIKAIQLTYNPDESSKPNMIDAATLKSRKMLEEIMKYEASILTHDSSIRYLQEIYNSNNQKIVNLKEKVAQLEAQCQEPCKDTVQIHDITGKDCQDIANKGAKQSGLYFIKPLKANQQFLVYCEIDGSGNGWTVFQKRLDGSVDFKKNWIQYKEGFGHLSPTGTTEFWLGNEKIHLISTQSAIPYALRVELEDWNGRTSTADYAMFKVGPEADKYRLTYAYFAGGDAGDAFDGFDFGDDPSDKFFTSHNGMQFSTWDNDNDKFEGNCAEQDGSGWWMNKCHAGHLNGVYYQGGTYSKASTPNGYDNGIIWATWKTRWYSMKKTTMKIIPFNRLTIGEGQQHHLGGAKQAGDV
Assay: BLI

- Kd: 46.9 nM
B1: recombinant FXIII‐B (natural protein)
chain: EEKPCGFPHVENGRIAQYYYTFKSFYFPMSIDKKLSFFCLAGYTTESGRQEEQTTCTTEGWSPEPRCFKKCTKPDLSNGYISDVKLLYKIQENMRYGCASGYKTTGGKDEEVVQCLSDGWSSQPTCRKEHETCLAPELYNGNYSTTQKTFKVKDKVQYECATGYYTAGGKKTEEVECLTYGWSLTPKCTKLKCSSLRLIENGYFHPVKQTYEEGDVVQFFCHENYYLSGSDLIQCYNFGWYPESPVCEGRRNRCPPPPLPINSKIQTHSTTYRHGEIVHIECELNFEIHGSAEIRCEDGKWTEPPKCIEGQEKVACEEPPFIENGAANLHSKIYYNGDKVTYACKSGYLLHGSNEITCNRGKWTLPPECVENNENCKHPPVVMNGAVADGILASYATGSSVEYRCNEYYLLRGSKISRCEQGKWSSPPVCLEPCTVNVDYMNRNNIEMKWKYEGKVLHGDLIDFVCKQGYDLSPLTPLSELSVQCNRGEVKYPLCTRKESKGMCTSPPLIKHGVIISSTVDTYENGSSVEYRCFDHHFLEGSREAYCLDGMWTTPPLCLEPCTLSFTEMEKNNLLLKWDFDNRPHILHGEYIEFICRGDTYPAELYITGSILRMQCDRGQLKYPRCIPRQSTLSYQEPLRT
